Reference: patent publication US20190330277A1

Legend:
[1] = biological target: 391-2 sc9 DS-Cav1 98C-362C; assay: ELISA, variant from culture supernatant on Ni-NTA plate
[2] = biological target: 391-2-DS-Cav1-sc9 100C-362C; assay: as above
[3] = biological target: 391-2-DS-Cav1-sc9 99C-361C; assay: as above
[4] = biological target: 391-2-DS-Cav1-sc9 99C-362C; assay: as above
[5] = biological target: 391-2-DS-Cav1-sc9deleteFS 98C-362C; assay: as above
[6] = biological target: 391-2-DS-Cav1_ sc9_I28C-G464C; assay: as above
[7] = biological target: RB94 sc9 DS-CAV1 N183GC-N428C L373R Long K226L; assay: as above
[8] = biological target: RB94 sc9 DS-CAV1 N183GC-N428C L373R Long; assay: as above
[9] = biological target: RB94 sc9 DS-CAV1 N183GC-N428C L373R; assay: as above
[10] = biological target: 391-2-DS-Cav1-BZGJ9deleteFS; assay: ELISA, variant from culture supernatant on Ni-NTA plate [continued]

For D25 antibody, the ELISA binding value [1] was 0.433, the ELISA binding value [2] was 0.274 and the ELISA binding value [3] was 0.225. The ELISA binding value [4] was 0.249, the ELISA binding value [5] was 0.362 and the ELISA binding value [6] was 0.202. For the same substance, the ELISA binding value [7] was 0.206, the ELISA binding value [8] was 0.26 and the ELISA binding value [9] was 0.187. For the same substance, the ELISA binding value [10] was 0.119.
